Test results reported in article doi:10.1101/695155.

Target: p35 (UniProt Q15078)
Test: co-IP

UniProt Q15078, sequence (Q15078 whole entry): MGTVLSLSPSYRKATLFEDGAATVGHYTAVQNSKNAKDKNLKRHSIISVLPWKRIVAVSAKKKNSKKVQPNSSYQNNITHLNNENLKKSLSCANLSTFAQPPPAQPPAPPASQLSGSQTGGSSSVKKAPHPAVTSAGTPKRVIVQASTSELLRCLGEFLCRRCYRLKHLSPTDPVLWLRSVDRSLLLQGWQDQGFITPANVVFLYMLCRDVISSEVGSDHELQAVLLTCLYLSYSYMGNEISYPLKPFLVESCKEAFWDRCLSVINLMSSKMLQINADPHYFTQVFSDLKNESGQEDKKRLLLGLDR

Question: Which cdk5 recovered by anti-p35 IP with nestin co-expressed, normalised to no nestin does the source give for “HA-CDK5-DN (D145N) (from UniProt Q00535 1-292) (enzyme)” here?
Answer: 1.12
